Changes are numbered by the printed parent chain.

The chains are these.
T1: biotinylated TREK-2 (Homo sapiens, biotin (site not stated))
T1 construct: the buffer (OGNG/CHS) is that of the cryo-EM sample
T1 chain: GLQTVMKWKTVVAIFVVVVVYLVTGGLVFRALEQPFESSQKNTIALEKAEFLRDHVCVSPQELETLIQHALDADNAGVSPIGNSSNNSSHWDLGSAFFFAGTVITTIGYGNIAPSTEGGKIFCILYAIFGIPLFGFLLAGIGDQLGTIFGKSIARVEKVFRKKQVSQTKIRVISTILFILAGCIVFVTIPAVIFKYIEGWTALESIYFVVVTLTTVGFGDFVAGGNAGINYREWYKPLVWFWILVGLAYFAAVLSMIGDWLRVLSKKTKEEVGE

T2: human TREK-2 protein (residues Gly67 to Glu340) (human)
T2 chain: T1 chain

B1: Nb-Binder-58 fused to the mVenus fluorescent protein (VHH)
VHH: QVQLVESGGGLVQAGGSLRLSCAASGRAGSGYAMGWFRQAPGKEREIVGAISWSGDNTYYADSVRGRVTISRDYAQNTVYLQMNSLKPEDTAVYYCAADGRGNLRRGTAGRYVEYWGQGTQVTVSS
notes: as the VHH of m9 (Nb58); mVenus joined by a (GS)2 linker; also called Nb58 fused to mVenus; source: cloned into the pFAW vector; not shown: mVenus, C-terminal, kept
B2: Nb-Binder-57 fused to mVenus (VHH)
VHH: QVQLVESGGGLVQAGDSLRLSCASSGRALSNVAMGWFRQAPGKEREIVAAISWSGDNTYYADSGRGRFTISRDNAKNTVYLQMNNLRPEDTAVYYCAADGRGNLRRGTAGRYVDYWGQGTQVTVSS
notes: mVenus joined by a (GS)2 linker; also called CA10757; Nb57; source: cloned into the pFAW vector; not shown: mVenus, C-terminal, kept
B3: Nb-Inhibitor-61 (VHH)
VHH: QVQLVESGGGLVQAGDSLRVSCAGSGFTFTSYGMGWFRQAPGKEREFVASINWNSNTAYADSVRGRFTISRDNAESMMYLQMNSLKPEDTAVYYCAATRAYSKPRVDSRHYDYWGQGTQVTVSS
notes: also called CA10761; Nb61; source: E. coli WK6, periplasm, purified (Ni-NTA)
B4: CA10764 (VHH)
VHH: QVQLVESGGGLAQAGGSLRLSCAASGRTFSNYAMGWFRQAPGKEREFVATISSSGGTIRYADSVKGRFTISRDNAKNTVALQMNVLKPEDTAVYYCAQSKYGRAWSDRYEYDRWGQGTQVTVSS
B5: CA10752 (VHH)
VHH: QVQLVESGGGLVQAGGSLRLSCAASGRTSSTYAMSWFRQPPGKEREFVARIRWSGSNTYYADSVKGRFTISGDNAKNTVYLQMNSLKAEDTAVYYCAAVIDPYSSAYEYWGQGTQVTVSS
B6: CA10753 (VHH)
VHH: B5 VHH with S29F, P40A, S56T, N57S, Y59A, T69F, A88P, D101N
B7: CA10771 (VHH)
VHH: QVQLVESGGGLVQAGGSLRLSCAASGRTASLYAMDWFRQAPGKEREFVARLILSTFGTNYADSVKGRFTFSRDNAKNTVYLQMNNLKPEDTGVYFCAAHSLTSTNWDQGTQVTVSS
B8: CA10755 (VHH)
VHH: QVQLVESGGGLVQAGGSLRLSCAASRSIVTINAMSWHRQAPGKQRELVASITKRGRTNIADSVKGRFAISWDRNTVYLQMNSLKPEDTAVYYCAALTDIPMNTYWGQGTQVTVSS
B9: CA10756 (VHH)
VHH: B8 VHH with I28F, M34I, R73K, V90N, M101V
B10: CA10778 (VHH)
VHH: B8 VHH with S27G, V29F, N32T, K53R, G65D, R73K, D87E, I99A
B11: CA10779 (VHH)
VHH: QVQLVESGGGAVQAGGSLRLSCASSDHSFTRYTIAWFRQAPGKEREFVAALTWNGGITNYADSVKGRFTISRENGKNTAYLQMDALESEDTAVYYCAAVFGPASLTREDMYEYWGQGTQVTVSS
B12: CA10769 (VHH)
VHH: QVQLVESGGGLVQAGDSLRLSCAASGRTSSSDVMGWFRQAPGKGREFVAETSWRGGKTAYADSVKGRFAISRDNAKNTVYLQMNNLKPEDTAVYYCAVLHADSSTYAYWGQGTRVTVSS
B13: CA10773 (VHH)
VHH: QVQLVESGGGLVQPGGSLRLSCAASGFTFSSYPMSWARQAPGKGLEWVSAINRGGSSTNYADSVKGRFTISRDNAKNTLYLQMDSLKPEDTAVYYCFKGGTRGQGTQVTVSS
B14: CA10774 (VHH)
VHH: B13 VHH with S17T, Y32K, N52S, G54D, D73N, K76W, S85N, K98M
B15: CA10765 (VHH)
VHH: QVQLVESGGGLVQAGGSLRLSCAASGFTFDDYAIGWFRQAPGKEREGVSCISSSDGSTYYADSVKGRFTISSDNAKNTVYLQMNSLKPEDTAVYYCAADPYLYCSDYGDSGTLSYYGVDYWGKGTQVTVSS
B16: CA10777 (VHH)
VHH: QVQLVESGGGLVQPGGSLRLSCAASGLIARLIDWGWYRQAPGKQRELVAAITAGGRTNYTDSVKGRFTISRDDPKNTVYLQMSALKPEDTAVYYCCVDFRSYAGKQYHYCGQGTQVTVSS
B17: CA10766 (VHH)
VHH: QVQLVESGGGLVQAGGSLRLSCAASGRSFSTYGIGWFRQAPGRERDLVASISWSGGGTYYADSVKGRSTISRDNAKNMVDLQMNSLKPEDTAVYYCAARRLGGVGRIVQYDYWGQGTQVTVSS
B18: CA10763 (VHH)
VHH: QVQLVESGGGLVQAGGSLRLSCAASGLTFSGYPMGWFRQAPGKEREFVATISRSGNNMHYADSVKGRFTISRDNAKNTVSLQMNSLKPEDTAVYYCAADSTTLRRGVASVEYWGQGTQVTVSS
B19: CA10754 (VHH)
VHH: QVQLVESGGGLVQAGGSLRLSCAASGRTFSTYAMSWFRQAPGKEREFVARIRWSTTRTSSTYYADSVKGRFTISGDNAKNTVYLQMDSLKPEDTAVYYCAAVINPYSSAYEYWGQGTQVTVSS
B20: CA10780 (VHH)
VHH: QVQLVESGGGLVQAGGSLRLSCAASGRTFSSYAMGWFRQAPGKEREFVAAISWSGGSTYYADSVKGRFTVSRDNAKNTVYLQMNSLKPEDTAVYYCAADSISTAQAMRVNERDYGMDYWGKGTQVTVSS
B21: CA10759 (VHH)
VHH: QVQLVESGGGLVQAGGSLRLSCAASGLTFSRYNMGWFRQAPGKEREFVAAINRYGGTMYATDSVKGRFTISRDNVKSTVDLQMNRLKPEDTAVYYCAADQQYMSRLEADFGSWGQGTQVTVSS
B22: CA10760 (VHH)
VHH: B21 VHH with R31A, M58L, A60T, K87E
B23: CA10772 (VHH)
VHH: QVQLVESGGGLVQPGGSLRLSCAASGFTFSAYAMRWHRQAPGKGLEWVSSIDHSGAWPNYADSVKGRFTISRDNAKNTLYLQMDSLKPEDTAVYYCSKAGFRGQGTQVTVSS
B24: CA10770 (VHH)
VHH: QVQLVESGGGLVQAGGSLRLSCAASGRSFSSYRMAWFRQAPGLEREFVAAISRSGSNTDYADSVKGRFTISRDNAKNTVYLQMNSLKPDDTAVYFCAANTSPLLGSVATGQEYYIYWAQGTQVTVSS
B25: Nb-Binder-58 (VHH)
VHH: B1 VHH
notes: also called CA10758; Nb58; source: E. coli WK6, periplasm, purified (Ni-NTA)

T4 sequence (P57789 whole entry, looked up, stated change not applied, the tested form may be a part): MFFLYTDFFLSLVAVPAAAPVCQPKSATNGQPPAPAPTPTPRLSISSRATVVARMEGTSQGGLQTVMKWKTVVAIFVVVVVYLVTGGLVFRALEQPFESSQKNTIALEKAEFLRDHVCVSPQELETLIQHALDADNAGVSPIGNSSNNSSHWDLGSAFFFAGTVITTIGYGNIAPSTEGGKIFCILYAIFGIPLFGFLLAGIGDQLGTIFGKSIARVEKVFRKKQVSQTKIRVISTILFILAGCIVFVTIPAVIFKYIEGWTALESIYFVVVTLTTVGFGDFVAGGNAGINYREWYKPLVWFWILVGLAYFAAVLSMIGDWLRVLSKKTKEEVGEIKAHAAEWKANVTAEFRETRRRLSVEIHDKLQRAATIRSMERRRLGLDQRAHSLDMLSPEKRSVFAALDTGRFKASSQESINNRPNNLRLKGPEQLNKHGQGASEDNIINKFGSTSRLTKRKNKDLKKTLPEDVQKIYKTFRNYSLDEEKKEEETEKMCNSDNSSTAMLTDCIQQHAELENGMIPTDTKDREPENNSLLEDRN

For one test, the target named is T3, TREK-1 tagged with mCherry (Homo sapiens, UniProt O95069).
T3 construct: human TREK-1 K2P channel, stop codon removed and mCherry fused in frame to the C-terminus by a (GS)2 linker; source: HEK293T, transfected (pFAW vector), fixed cells; not shown: mCherry, C-terminal, kept
T3 sequence (O95069 whole entry, the tested form may be a part): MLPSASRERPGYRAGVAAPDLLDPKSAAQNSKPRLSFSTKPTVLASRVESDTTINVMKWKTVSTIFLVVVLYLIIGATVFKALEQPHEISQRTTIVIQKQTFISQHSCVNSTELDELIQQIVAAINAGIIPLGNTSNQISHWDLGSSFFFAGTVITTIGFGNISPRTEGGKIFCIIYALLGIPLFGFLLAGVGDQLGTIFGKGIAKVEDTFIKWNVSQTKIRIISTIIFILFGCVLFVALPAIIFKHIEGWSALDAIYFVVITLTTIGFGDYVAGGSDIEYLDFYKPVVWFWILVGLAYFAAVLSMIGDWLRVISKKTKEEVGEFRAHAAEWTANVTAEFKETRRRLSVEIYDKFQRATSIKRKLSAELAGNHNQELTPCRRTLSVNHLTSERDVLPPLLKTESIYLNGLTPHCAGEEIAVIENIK
Description: immunostaining of cells or tissue; HEK293T cells transfected with K2P-mCherry, fixed with 4% formaldehyde, incubated with nanobody-mVenus for 2 h at 37 °C, washed, imaged for overlap of the two fluorescent signals.
Settings: not given
With B1, the binding result is on record as “no binding”.
Same read-out and setting: in the case of B2 it was “no binding”.

A further test has as its target T4, TREK-2-mCherry fusion (Homo sapiens, UniProt P57789-4, strain).
T4 construct: The legend says HEK-293, the methods HEK293T; also called TREK-2 tagged with the mCherry fluorescent protein; K2P-mCherry-pFAW; source: HEK293T, transfected (pFAW vector), fixed cells; not shown: mCherry, C-terminal, kept
The test is described as above.
Settings: not given
As to B1, the binding result is “binds”.
Regarding B2, the binding result is given as “binds”.

In a further test the target is T1, biotinylated TREK-2. Kind of test: BLI; Octet Red; biotinylated TREK-2 (50 nM) loaded on streptavidin biosensors in 200 mM KCl, 20 mM HEPES pH 7.5, 0.12% OGNG, 0.012% CHS; nanobody dilutions 2 µM-7.8 nM (Nb61) and 1000 nM-3.9 nM (Nb6158); 600 s association, 600 s dissociation. To be noted: both partners purified. (In general: BLI is a label-free optical method that tracks binding on a fibre tip over time.)
By Kd is commonly meant the free concentration of one partner at which half of the binding sites on the other are occupied at equilibrium, for simple one-to-one binding. A higher Kd goes with lower affinity. On to B3, for which the Kd is 1.1 µM.

Another test deals with T2, human TREK-2 protein (residues Gly67 to …).
Assay: not given
Settings: not given
In the case of B4, the binding result was “binds”.
On the same count and under the same terms, the same measure for B5: “binds”; for B6: “binds”.
For the molecule B7, the binding result is listed as “binds”.
On to B8, for which the binding result is “binds”.
Regarding B9, the binding result is on record as “binds”.
For the molecule B10, the binding result is given as “binds”.
On the same count and under the same terms, in the case of B11 it was “binds”; in that of B12, “binds”.
Same read-out and setting: in the case of B13 it was “binds”; in that of B14, “binds”; in that of B15, “binds”.
On to B16, for which the binding result is on record as “binds”.
Consider B17, for which the binding result is reported as “binds”.
The same measure, in the same setting: in the case of B18 it was “binds”; in that of B19, “binds”; in that of B20, “binds”.
On the same count and under the same terms, in the case of B21 it was “binds”; in that of B22, “binds”.
For the molecule B23, the binding result is “binds”.
Regarding B24, the binding result was “binds”.

The target is the same in the next test. Description: SEC; each nanobody mixed with purified TREK-2 in a 2:1 molar ratio, Sepax SRT SEC-300 column in 200 mM KCl, 20 mM HEPES pH 7.5; shift of the 280 nm TREK-2 peak against TREK-2 alone. As to conditions: both partners purified. (In general: SEC sorts molecules by how far they enter the pores of the column.)
With B25, the binding result is “binds”.

The values are drawn from article PMC11099193, “Extracellular modulation of TREK-2 activity with nanobodies provides insight into the mechanisms of K2P channel regulation” (Nature Communications, 2024).
